Patent US20170081647A1, “GENETIC DETECTION PLATFORM” (Pharmozyme, Inc., priority 2014, published 2017)

Legend:
[1] = biological target: T1, Taq polymerase (Thermus aquaticus, UniProt P19821, A391P/R392G/V390W); experiment: Polymerase activity in the presence of a polymerase inhibitor (amplification reaction at 45° C.); format: biochemical
T1 construct: made in house; host or cells: E. coli Rosetta 2 (DE3), plasmid pET21-Biotin-His6-ABP-Taq
Experimental: The assay was fixed at a final volume of 100 μl, and contained reaction components at the following final concentrations: oligonucleotide of SEQ ID NO: 8; 40 μM, dNTPs; 200 μM (each), APS; 1.6 mM, ATP sulfurylase; 0.12 Units, D-Luciferin; 0.3 mM, and Luciferase; 3 μg.
FIG. 9 illustrates a luminescence assay that indicates the Taq polymerase activity. As shown in FIG. 9A and FIG. 9B, a time course is initially indicated with a lag phase, normally less than 2 minutes, followed by a linear increase in luminescence. The rate of luminescence increase (slope) defines the Taq polymerase activity.
Hot Start Taq DNA polymerase was obtained from New England BioLabs (NEB). Taq polymerase from New England BioLabs was tested as a control. An amplification reaction was performed to determine the activity of Bio-HIS-ABS-Taq in the presence of human serum albumin (HSA) at 45° C. and to compare the activity of Bio-HIS-ABS-Taq in the presence of HSA with Hot Start Taq polymerase (NEB). The ratio of Bio-HIS-ABS-Taq to HSA is 1:1. Table 2 illustrates the activity of Bio-HIS-ABS-Taq in the presence of HSA compared to the activity of Hot Start Taq Polymerase from NEB.

[2] = biological target: human serum albumin (HSA), P02768
[3] = Protamine-based method optimization: Qubit protein remaining; conditions: protamine beads
Experimental: For protamine attachment, NHS-activated Sepharose beads were utilized and coupling was performed in 0.1 M HEPES buffer (pH 7.0), with a protein to bead ratio of 25 mg of the protein to 1 ml bead suspension (0.5 ml packed), pre-washed with 1 mM HCl. Attachment of protamine to beads was completed by leaving the suspension on rotation overnight at 4° C., followed by washing with 0.1 M Tris (pH 8.5), to block any remaining NHS groups on beads. The procedure ensured overall coverage of Sepharose beads with the highly charged protamine molecules.
DNA contaminant removal was accomplished using 15 μl of packed protamine-Sepharose beads per mg Taq polymerase, in 0.05 M sodium acetate, 0.2 M potassium chloride, pH 5.0. After leaving on rotation for 10 minutes, the suspension was centrifuged for 3 minutes at 1000×g, and the supernatant containing the enzyme was tested for DNA contamination, using a Qubit quantitation system.
pH Optimization: pH at 4.4, 4.75, 5.5, 6, and 7.7 were tested. Buffers used for adjusting the pH included acetate pH 4, acetate pH 5, MES pH 6, HEPES pH 7, and Tris pH 8. In each tube, 4 ul of the protamine bead slurry (protamine from Sigma-Aldrich) was used, 10 ul of buffer, 7 ul of 3.5 M KCl, and 140 ul of the buffer exchanged Bio-HIS-ABS-Taq polymerase. The initial concentrations of the polymerase and DNA contaminant were 0.478 mg/mL and 65.3 ng/mL, respectively.
Table 4 illustrates the final concentrations of the Bio-HIS-ABS-Taq polymerase and DNA contaminant from a second set of experiment. The initial concentrations of the polymerase and DNA contaminant were 0.55 mg/mL and 65.3 ng/mL, respectively.
Table 5 illustrates the final concentrations of the Bio-HIS-ABS-Taq polymerase and DNA contaminant from an experiment that modulates the salt concentration. The initial concentrations of the polymerase and DNA contaminant were 0.487 mg/mL and 82.9 ng/mL, respectively.

[4] = relative to Control #2 (Taq, NEB)
[5] = KCl 0.145 M, initial polymerase 0.487 mg/mL
[6] = KCl 0.194 M, initial polymerase 0.487 mg/mL
[7] = KCl 0.242 M, initial polymerase 0.487 mg/mL
[8] = KCl 0.291 M, initial polymerase 0.487 mg/mL
[9] = KCl 0.340 M, initial polymerase 0.487 mg/mL
[10] = pH 4.4, initial polymerase 0.478 mg/mL
[11] = pH 4.75, initial polymerase 0.478 mg/mL
[12] = pH 5.5, initial polymerase 0.478 mg/mL
[13] = pH 6, initial polymerase 0.478 mg/mL
[14] = pH 7.7, initial polymerase 0.478 mg/mL
[15] = second set, pH 4.03, initial polymerase 0.55 mg/mL
[16] = second set, pH 4.22, initial polymerase 0.55 mg/mL
[17] = second set, pH 4.40, initial polymerase 0.55 mg/mL
[18] = second set, pH 4.80, initial polymerase 0.55 mg/mL

Control #1 (Taq, NEB): Taq polymerase from New England BioLabs, tested as a control
% activity ([1]; Bio-HIS-ABS-Taq to HSA 1:1, relative to Control #1 (Taq, NEB)): 100%
% activity [1, 4]: 100%

Hot Start (NEB): Hot Start Taq DNA polymerase obtained from New England BioLabs (NEB)
% activity [1, 4]: 91%

B1: Bio-HIS-ABS-Taq polymerase (protein)
chain: MASSLRQILDSQKIEWRSNAGGASHHHHHHGGASLAEAKVLANRELDKYGVSDYHKNLINNAKTVEGVKDLQAQVVESAKKARISEATDGLSDFLKSQTPAEDTVKSIELAEAKVLANRELDKYGVSDYYKNLINNAKTVEGVKALIDEILAALPGTFAHYMDPNLEALFQGPNSLPLFEPKGRVLLVDGHHLAYRTFHALKGLTTSRGEPVQAVYGFAKSLLKALKEDGDAVIVVFDAKAPSFRHEAYGGYKAGRAPTPEDFPRQLALIKELVDLLGLARLEVPGYEADDVLASLAKKAEKEGYEVRILTADKDLYQLLSDRIHVLHPEGYLITPAWLWEKYGLRPDQWADYRALTGDESDNLPGVKGIGEKTARKLLEEWGSLEALLKNLDRLKPAIREKILAHMDDLKLSWDLAKVRTDLPLEVDFAKRREPDRERLRAFLERLEFGSLLHEFGLLESPKALEEAPWPPPEGAFVGFVLSRKEPMWADLLALAAARGGRVHRAPEPYKALRDLKEARGLLAKDLSVLALREGLGLPPGDDPMLLAYLLDPSNTTPEGWPGRYGGEWTEEAGERAALSERLFANLWGRLEGEERLLWLYREVERPLSAVLAHMEATGVRLDVAYLRALSLEVAEEIARLEAEVFRLAGHPFNLNSRDQLERVLFDELGLPAIGKTEKTGKRSTSAAVLEALREAHPIVEKILQYRELTKLKSTYIDPLPDLIHPRTGRLHTRFNQTATATGRLSSSDPNLQNIPVRTPLGQRIRRAFIAEEGWLLVALDYSQIELRVLAHLSGDENLIRVFQEGRDIHTETASWMFGVPREAVDPLMRRAAKTINFGVLYGMSAHRLSQELAIPYEEAQAFIERYFQSFPKVRAWIEKTLEEGRRRGYVETLFGRRRYVPDLEARVKSVREAAERMAFNMPVQGTAADLMKLAMVKLFPRLEEMGARMLLQVHDELVLEAPKERAEAVARLAKEVMEGVYPLAVPLEVEVGIGEDWLSAKE
% activity [2]: 73%

B2: Bio-HIS-ABS-Taq polymerase: Taq polymerase with N-terminal biotin-tag, His6 and albumin-binding protein fusion (SEQ ID NO: 1), expressed in E. coli (protein)
chain: B1 chain
modifications: N-terminal biotin; Synthetic polypeptide Bio-HIS-ABS-Taq polymerase
% protein remaining (comp to buffer exch) [3, 5]: 105%
Qubit protein remaining [3, 5]: 0.513 mg/mL
% protein remaining (comp to buffer exch) [3, 6]: 101%
Qubit protein remaining [3, 6]: 0.495 mg/mL
% protein remaining (comp to buffer exch) [3, 7]: 99.9%
Qubit protein remaining [3, 7]: 0.487 mg/mL
% protein remaining (comp to buffer exch) [3, 8]: 70%
Qubit protein remaining [3, 8]: 0.339 mg/mL
% protein remaining (comp to buffer exch) [3, 9]: 55%
Qubit protein remaining [3, 9]: 0.271 mg/mL
% protein remaining (comp to buffer exch) [3, 10]: 97%
Qubit protein remaining [3, 10]: 0.462 mg/mL
% protein remaining (comp to buffer exch) [3, 11]: 60%
Qubit protein remaining [3, 11]: 0.288 mg/mL
% protein remaining (comp to buffer exch) [3, 12]: 61%
Qubit protein remaining [3, 12]: 0.292 mg/mL
% protein remaining (comp to buffer exch) [3, 13]: 64%
Qubit protein remaining [3, 13]: 0.308 mg/mL
% protein remaining (comp to buffer exch) [3, 14]: 75%
Qubit protein remaining [3, 14]: 0.360 mg/mL
% protein remaining (comp to buffer exch) [3, 15]: 94%
Qubit protein remaining [3, 15]: 0.459 mg/mL
% protein remaining (comp to buffer exch) [3, 16]: 95%
Qubit protein remaining [3, 16]: 0.486 mg/mL
% protein remaining (comp to buffer exch) [3, 17]: 96%
Qubit protein remaining [3, 17]: 0.505 mg/mL
% protein remaining (comp to buffer exch) [3, 18]: 93%
Qubit protein remaining [3, 18]: 0.497 mg/mL
